Test results as given in paper PMC3169398, “Structures of phosphopantetheine adenylyltransferase from Burkholderia pseudomallei” (Acta Crystallographica Section F: Structural Biology and …, 2011).

Biological target: the molecule itself
Experiment: crystal structure

B1: Phosphopantetheine adenylyltransferase from B. pseudomallei strain 1710b, tag removed (GPGS-ORF) (enzyme)
chain: MVVAVYPGTFDPLTRGHEDLVRRASSIFDTLVVGVADSRAKKPFFSLEERLKIANEVLGHYPNVKVMGFTGLLKDFVRANDARVIVRGLRAVSDFEYEFQMAGMNRYLLPDVETMFMTPSDQYQFISGTIVREIAQLGGDVSKFVFPSVEKWLTEKVAAMAQGPSA
notes: also called Bp PPAT; PPAT
With B1 the “stoichiometry N” value was 6.

B2: Phosphopantetheine adenylyltransferase from B. pseudomallei strain 1710b, with the full-length expression tag (…-ORF) (enzyme)
chain: MVVAVYPGTFDPLTRGHEDLVRRASSIFDTLVVGVADSRAKKPFFSLEERLKIANEVLGHYPNVKVMGFTGLLKDFVRANDARVIVRGLRAVSDFEYEFQMAGMNRYLLPDVETMFMTPSDQYQFISGTIVREIAQLGGDVSKFVFPSVEKWLTEKVAAMAQGPSA
notes: also called Bp PPAT; PPAT
B2 was tested, and the “stoichiometry N” value was 6.
